Measured values: publication PMC7984168, “Heat Shock Protein HSP24 Is Involved in the BABA-Induced Resistance to Fungal Pathogen in Postharvest Grapes Underlying an NPR1-Dependent Manner”

B1: PR2 promoter HSE probe (dsDNA)
DNA 1: CATCTCAATATCAATATTTAAGAACTTTCTAATAAAATCATCCTTATCCGG
DNA 2: CCGGATAAGGATGATTTTATTAGAAAGTTCTTAAATATTGATATTGAGATG
B2: PR5 promoter HSE probe (dsDNA)
DNA 1: GGAACTGATTCCCTAAAACAGAAAAGAATGTATGAACCTTCCTAAAATAC
DNA 2: GTATTTTAGGAAGGTTCATACATTCTTTTCTGTTTTAGGGAATCAGTTCC
B3: PR1 promoter HSE probe (dsDNA)
DNA 1: GGCCCGCATGAGTTACAACAAGAAGAAATTTCAAATATTGCTCTCCGTGG
DNA 2: CCACGGAGAGCAATATTTGAAATTTCTTCTTGTTGTAACTCATGCGGGCC

molecular target: VvHSP24 (class B HSP/HSF, AtHSFB1 ortholog) (Vitis vinifera, UniProt A0ACM8QKQ1 1-286); assay: EMSA; LightShift chemiluminescent EMSA kit (Pierce); buffer, salt, pH and temperature not stated; 200-fold mutant competitor; conditions: protein: recombinant; tags: His (pCzn1); label: 5' biotin
Sequence (A0ACM8QKQ1 entry or part of it): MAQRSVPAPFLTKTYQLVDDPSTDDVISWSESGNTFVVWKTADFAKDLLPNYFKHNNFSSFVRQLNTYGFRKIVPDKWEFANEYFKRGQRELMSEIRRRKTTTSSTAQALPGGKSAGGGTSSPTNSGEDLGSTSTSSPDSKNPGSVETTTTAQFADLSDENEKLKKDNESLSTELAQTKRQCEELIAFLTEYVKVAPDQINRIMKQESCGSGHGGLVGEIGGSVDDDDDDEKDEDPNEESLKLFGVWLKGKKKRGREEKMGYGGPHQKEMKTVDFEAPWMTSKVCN

Binding result, no binding:
B1
B2
B3
